The results in this text go back to patent US20150139982A1 (ALETHIA BIOTHERAPEUTICS, published 2015).

Assay [1] deals with T1, Fc-Siglec-15 fusion protein (Homo sapiens (Human), UniProt Q6ZMC9 20-259, limits assumed).
T1 construct: also called recombinant Siglec-15; purified Fc-Siglec-15; not shown: Fc region
T1 sequence: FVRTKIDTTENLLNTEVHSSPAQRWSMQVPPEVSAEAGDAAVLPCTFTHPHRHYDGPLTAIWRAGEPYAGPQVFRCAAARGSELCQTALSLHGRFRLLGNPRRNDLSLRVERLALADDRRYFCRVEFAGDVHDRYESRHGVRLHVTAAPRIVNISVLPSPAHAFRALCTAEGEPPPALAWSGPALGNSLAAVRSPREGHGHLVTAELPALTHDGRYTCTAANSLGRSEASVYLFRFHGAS
Put plainly: SPR, Fc-Siglec-15 immobilized, antibody injected at 100 to 1.23 nM, 1:1 fit. The protocol: (§1) FIG. 12. SPR chromatograms illustrating the differences in binding parameters between the humanized 25E9 L1H1 IgG1 (left panel) and the humanized 25E9 L1H1 IgG2 (right panel). Purified Fc-Siglec-15 was immobilized (150RU) and humanized 25E9 was injected at the indicated concentrations (100 nM, 33.3 nM, 11.1 nM, 3.70 nM and 1.23 nM). The curves were fit with a 1:1 ratio.
(§2) More particularly, we compared the binding activity of the humanized 25E9 L1H1 IgG1 (the L1H1 IgG1 variant) with the humanized 25E9 L1H1 IgG2 (the L1H1 IgG2 variant) using SPR. The analysis was conducted using methods similar to what was described above (see Example 6). In this instance, Fc-Siglec-15 was immobilized on the chip and decreasing concentrations of the 25E9 antibody variants were injected (100 nM, 33.3 nM, 11.1 nM, 3.70 nM and 1.23 nM). […] The difference in binding was mostly contributed by a slower off-rate (kd) of the IgG1 compared to the IgG2.
In general terms: SPR reads the build-up and loss of mass on a sensor chip optically.

For assay [2], the target named is T1, Fc-Siglec-15 fusion protein. Description: SPR, Fc-Siglec-15 immobilized (150 RU), antibody injected at 100, 33.3, 11.1, 3.70 and 1.23 nM, 1:1 fit. The method, then: as §1, §2
The target in assay [3] is T2, human Siglec-15 (human, UniProt Q6ZMC9 20-328).
T2 construct: also called h-Siglec-15; CD33L3
T2 sequence: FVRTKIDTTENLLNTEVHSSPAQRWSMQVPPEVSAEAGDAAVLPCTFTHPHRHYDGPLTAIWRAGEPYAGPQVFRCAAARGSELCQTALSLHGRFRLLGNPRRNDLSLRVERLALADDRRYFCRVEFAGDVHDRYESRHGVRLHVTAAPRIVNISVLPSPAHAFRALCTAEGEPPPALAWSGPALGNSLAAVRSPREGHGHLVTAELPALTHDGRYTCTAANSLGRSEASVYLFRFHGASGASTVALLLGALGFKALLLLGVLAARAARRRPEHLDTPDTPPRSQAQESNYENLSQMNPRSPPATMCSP
Description: flow cytometry on 293-6E cells transfected with human Siglec-15. The protocol: (§3) We tested the ability of the humanized antibodies to interact with human Siglec-15 expressed on the surface of cultured cells. […] Twenty-four hours later, the cells were harvested, counted and 1×10⁵ cells were incubated with increasing concentrations of the humanized IgG1 variant of 25E9 for 1 hour at 4 C. Following a washing step with cold PBS, bound 25E9 was detected with an anti-human kappa light chain IgG conjugated to FITC. Fluorescently labeled cells were injected into a flow cytometer to measure the fluorescence signal on the surface of intact cells. […] The average KD was in the low nanomolar range. Furthermore, the binding parameters were very similar in the presence of the humanized 25E9 L1H1 IgG1 variant produced in either CHO cells or 293 cells. […] Similar results were obtained with other 25E9 humanized IgG1 antibody variants (the L1H2 IgG1, the L1H3 IgG1, the L1H4 IgG1 and, the L1H1 IgG2) or with the humanized 25D8 IgG2 antibody.
On the technique in general: Flow cytometry measures light scatter and fluorescence of single cells or particles in a stream.

Assay [4] has as its target T2, human Siglec-15. Description: cell-based or functional assay.
Assay [5] has as its target T1, Fc-Siglec-15 fusion protein. Description: SPR, Fc-Siglec-15 immobilized, antibody injected. The protocol: as §1, §2
The target in assay [6] is T2, human Siglec-15. Description: flow cytometry titration (0 to 4 µg/ml) on 293-6E cells transfected with human Siglec-15, detected with FITC anti-human kappa light chain; antibody made in CHO cells. The method, then: as §3
For assay [7], the target named is T2, human Siglec-15. Put plainly: flow cytometry titration (0 to 4 µg/ml) on 293-6E cells transfected with human Siglec-15, detected with FITC anti-human kappa light chain; antibody made in 293 cells. The protocol: as §3
For assay [8], the target named is T2, human Siglec-15. Put plainly: flow cytometry on 293-6E cells transfected with human Siglec-15 cDNA. An excerpt:
The average KD was in the low nanomolar range. Furthermore, the binding parameters were very similar in the presence of the humanized 25E9 L1H1 IgG1 variant produced in either CHO cells or 293 cells. […] Similar results were obtained with other 25E9 humanized IgG1 antibody variants (the L1H2 IgG1, the L1H3 IgG1, the L1H4 IgG1 and, the L1H1 IgG2) or with the humanized 25D8 IgG2 antibody.
Experiments were undertaken to examine the feasibility of targeting Siglec-15-expressing cells with an ADC. The humanized 25E9 L1H1 IgG1 variant was conjugated to a payload that is toxic to proliferating cells as well as non-proliferating or fully differentiated cells, in particular osteoclasts. The humanized 25E9 L1H1 IgG1 conjugated antibody was designated 25E9-ADC. Since the conjugation might affect the ability of 25E9 to interact with native Siglec-15, flow cytometry was conducted to measure the binding of the 25E9-ADC to Siglec-15 expressing cells.

What is called Kd is the equilibrium constant for the complex coming apart. A low value points to tighter binding. Broadly, the koff is the rate constant with which the complex falls apart. A high value points to a short-lived complex. One may read the kon as the rate constant with which the complex forms. The low end stands for slower complex formation, the high end for faster complex formation. For orientation: EC50 (read off the curve) means the concentration giving half of the maximal effect.

B1: humanized 25E9 L1H1 IgG2 variant (antibody)
light: DIVMTQSPLSLPVTPGEPASISCRSTKSLLHSNGNTYLYWYLQKPGQSPQLLIYRMSNLASGVPDRFSGSGSGTDFTLKISRVEAEDVGVYYCMQHLEYPFTFGGGTKVEIKRTVAAPSVFIFPPSDEQLKSGTASVVCLLNNFYPREAKVQWKVDNALQSGNSQESVTEQDSKDSTYSLSSTLTLSKADYEKHKVYACEVTHQGLSSPVTKSFNRGEC
heavy: EIQLQQSGAEVKKPGSSVKVSCKASGYTFTDYDMHWVRQAPGQGLEWMGTIDPETGGTAYNQKFKGRVTITADKSTSTAYMELSSLRSEDTAVYYCTSFYYTYSNYDVGFAYWGQGTLVTVSSASTKGPSVFPLAPCSRSTSESTAALGCLVKDYFPEPVTVSWNSGALTSGVHTFPAVLQSSGLYSLSSVVTVPSSNFGTQTYTCNVDHKPSNTKVDKTVERKCCVECPPCPAPPVAGPSVFLFPPKPKDTLMISRTPEVTCVVVDVSHEDPEVQFNWYVDGVEVHNAKTKPREEQFNSTFRVVSVLTVVHQDWLNGKEYKCKVSNKGLPAPIEKTISKTKGQPREPQVYTLPPSREEMTKNQVSLTCLVKGFYPSDIAVEWESNGQPENNYKTTPPMLDSDGSFFLYSKLTVDKSRWQQGNVFSCSVMHEALHNHYTQKSLSLSPGK
notes: Full-length human kappa / human IgG2; also called humanized 25E9 IgG2
In assay [1], B1 displayed a Kd of 1.26 nM. In addition, in assay [2], the koff worked out at 0.000655 s⁻¹ and the kon is 520000 M⁻¹ s⁻¹.

B2: humanized 25E9 L1H2 IgG1 (antibody, V domains shown)
VH: EIQLQQSGAEVKKPGSSVKVSCKASGYTFTDYDMHWVRQAPGQGLEWIGTIDPETGGTAYNQKFKGRATLTADRSTSTAYMELSSLRSEDTAVYYCTSFYYTYSNYDVGFAYWGQGTLVTVSS
VL: DIVMTQSPLSLPVTPGEPASISCRSTKSLLHSNGNTYLYWYLQKPGQSPQLLIYRMSNLASGVPDRFSGSGSGTDFTLKISRVEAEDVGVYYCMQHLEYPFTFGGGTKVEIKR
notes: The residue ranges are those stated in CLM-00047 (item b)
B2: in the assay with human Siglec-15 [3], the binding result was “binds”.

B3: humanized 25D8 IgG2 antibody (antibody, V domains shown)
VH: QVQLQQSGAEVKKPGSSVKVSCKASGYTFTSYWMHWVRQAPGQGLEWMGLINPSNARTNYNEKFNTRVTITADKSTSTAYMELSSLRSEDTAVYYCARGGDGDYFDYWGQGTTVTVSS
VL: DIVMTQTPLSLPVTPGEPASISCRSSKSLLHSNGITYLYWYLQKPGQSPQLLIYQMSNLASGVPDRFSGSGSGTDFTLKISRVEAEDVGVYYCAQNLELPYTFGGGTKVEIKR
notes: Human kappa / human IgG2; also called humanized full-length IgG2 25D8
Turning to B3, the binding result with human Siglec-15 [3] is listed as “binds”.

B4: humanized 25E9 L1H4 IgG1 (antibody, V domains shown)
VH: EIQLQQSGAEVKKPGSSVKVSCKASGYTFTDYDMHWVKQAPGHGLEWIGTIDPETGGTAYNQKFKGKATLTADRSTSTAYMELSSLTSEDTAVYYCTSFYYTYSNYDVGFAYWGQGTLVTVSS
VL: DIVMTQSPLSLPVTPGEPASISCRSTKSLLHSNGNTYLYWYLQKPGQSPQLLIYRMSNLASGVPDRFSGSGSGTDFTLKISRVEAEDVGVYYCMQHLEYPFTFGGGTKVEIKR
notes: The residue ranges are those stated in CLM-00047 (item d)
As to B4, the binding result with human Siglec-15 [3] was “binds”.

B5: humanized 25E9 L1H1 IgG1 variant (antibody)
light: DIVMTQSPLSLPVTPGEPASISCRSTKSLLHSNGNTYLYWYLQKPGQSPQLLIYRMSNLASGVPDRFSGSGSGTDFTLKISRVEAEDVGVYYCMQHLEYPFTFGGGTKVEIKRTVAAPSVFIFPPSDEQLKSGTASVVCLLNNFYPREAKVQWKVDNALQSGNSQESVTEQDSKDSTYSLSSTLTLSKADYEKHKVYACEVTHQGLSSPVTKSFNRGEC
heavy: not shown
notes: Full-length human kappa / human IgG1; Produced in CHO or 293 cells; also called humanized IgG1 variant of 25E9; unconjugated 25E9
On to B5, for which the Kd in assay [1] was 0.164 nM; with human Siglec-15 [6], 5.7 nM; with human Siglec-15 [7], 1.9 nM. Moreover, the “fold difference in potency against the humanized 25E9 L1H1 IgG2 variant (osteoclast differentiation)” value with human Siglec-15 [4] is around 100 fold. Moreover, the “fold higher affinity than the humanized 25E9 L1H1 IgG2 variant” value in assay [5] is around 10 fold. The same molecule displayed a koff in assay [2] of 0.000151 s⁻¹. In assay [2], this molecule displayed a kon of 921000 M⁻¹ s⁻¹. Further, the concentration for a half-maximal effect (EC50 (read off the curve)) with human Siglec-15 [8] is around 0.1 µg/mL.

B6: humanized 25E9 L1H3 IgG1 (antibody, V domains shown)
VH: EIQLQQSGAEVKKPGSSVKVSCKASGYTFTDYDMHWVKQAPGQGLEWIGTIDPETGGTAYNQKFKGKATLTADRSTSTAYMELSSLRSEDTAVYYCTSFYYTYSNYDVGFAYWGQGTLVTVSS
VL: DIVMTQSPLSLPVTPGEPASISCRSTKSLLHSNGNTYLYWYLQKPGQSPQLLIYRMSNLASGVPDRFSGSGSGTDFTLKISRVEAEDVGVYYCMQHLEYPFTFGGGTKVEIKR
notes: The residue ranges are those stated in CLM-00047 (item c)
Consider B6, for which the binding result in the assay with human Siglec-15 [3] is recorded as “binds”.

B7: 25E9-ADC (humanized 25E9 L1H1 IgG1 conjugated antibody) (antibody)
light: DIVMTQSPLSLPVTPGEPASISCRSTKSLLHSNGNTYLYWYLQKPGQSPQLLIYRMSNLASGVPDRFSGSGSGTDFTLKISRVEAEDVGVYYCMQHLEYPFTFGGGTKVEIKRTVAAPSVFIFPPSDEQLKSGTASVVCLLNNFYPREAKVQWKVDNALQSGNSQESVTEQDSKDSTYSLSSTLTLSKADYEKHKVYACEVTHQGLSSPVTKSFNRGEC
heavy: not shown
modifications: conjugated to a toxic payload; payload, linker and attachment residues not stated
As for B7, the “EC50 (read off the curve)” value in the assay with human Siglec-15 [8] is around 0.2 µg/mL.
